According to PMC7855791:
Read-outs that look alike come from different tables or passages of the source.

Assays:
[1] = molecular target: T1, Spo11 wild type (core complex subunit);Ski8;Rec102;Rec104 (Saccharomyces cerevisiae;Saccharomyces …, UniProt P23179;Q02793;Q02721;P33323 1-398;1-397;1-264;1-182, |||); experiment: FeBABE footprinting
[2] = molecular target: T1, Spo11 wild type (core complex …); experiment: FeBABE footprinting; remark: listed apart in the source

T1 sequence (P23179 whole entry, chain 1 of 4): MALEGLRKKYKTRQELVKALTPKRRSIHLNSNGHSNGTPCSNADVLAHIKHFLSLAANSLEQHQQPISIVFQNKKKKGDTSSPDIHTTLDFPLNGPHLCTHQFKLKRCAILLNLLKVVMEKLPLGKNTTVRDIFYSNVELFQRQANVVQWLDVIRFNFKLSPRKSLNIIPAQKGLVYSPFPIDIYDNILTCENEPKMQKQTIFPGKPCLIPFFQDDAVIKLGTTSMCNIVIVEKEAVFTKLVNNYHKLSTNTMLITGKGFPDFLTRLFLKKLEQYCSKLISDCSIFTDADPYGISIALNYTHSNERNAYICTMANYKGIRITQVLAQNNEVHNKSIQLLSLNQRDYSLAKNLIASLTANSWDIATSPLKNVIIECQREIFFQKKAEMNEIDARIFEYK
T1 sequence (Q02793 whole entry, chain 2 of 4): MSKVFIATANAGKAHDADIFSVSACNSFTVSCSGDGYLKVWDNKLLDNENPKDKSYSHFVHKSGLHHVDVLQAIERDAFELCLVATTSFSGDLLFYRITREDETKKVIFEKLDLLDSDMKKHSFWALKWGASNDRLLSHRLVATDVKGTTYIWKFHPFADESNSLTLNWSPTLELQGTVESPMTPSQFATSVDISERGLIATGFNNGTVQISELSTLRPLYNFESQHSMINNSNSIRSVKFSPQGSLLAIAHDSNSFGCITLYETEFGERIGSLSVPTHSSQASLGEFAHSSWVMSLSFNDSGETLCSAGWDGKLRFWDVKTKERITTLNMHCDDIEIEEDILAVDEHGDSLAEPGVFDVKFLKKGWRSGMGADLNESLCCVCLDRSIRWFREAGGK
T1 sequence (Q02721 whole entry, chain 3 of 4): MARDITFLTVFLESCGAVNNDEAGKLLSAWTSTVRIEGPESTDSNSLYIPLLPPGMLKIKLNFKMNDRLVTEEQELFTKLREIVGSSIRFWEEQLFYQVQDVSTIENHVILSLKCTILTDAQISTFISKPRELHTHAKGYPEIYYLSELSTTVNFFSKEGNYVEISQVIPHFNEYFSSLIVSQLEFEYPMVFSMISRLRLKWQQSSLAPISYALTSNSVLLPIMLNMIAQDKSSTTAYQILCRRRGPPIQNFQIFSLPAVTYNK
T1 sequence (P33323 whole entry, chain 4 of 4): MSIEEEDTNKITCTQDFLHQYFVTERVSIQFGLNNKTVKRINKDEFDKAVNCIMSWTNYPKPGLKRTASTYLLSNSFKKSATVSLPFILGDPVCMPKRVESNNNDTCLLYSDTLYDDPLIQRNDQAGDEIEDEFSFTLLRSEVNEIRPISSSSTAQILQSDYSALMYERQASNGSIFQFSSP

Binder	binding result [1]	binding result [2]
5'-TA-distal FeBABE probe (cb958/cb960) (dsDNA, 5 phosphorothioates with FeBABE on strand 2 (after nt 2,4,6,8,10)) DNA 1: TAGCAATGTAATCGTCTATGACGTT DNA 2: AACGTCATAGACGATTACATTGC	binds	
5'-TA-proximal FeBABE probe (cb958/cb961) (dsDNA, 5 phosphorothioates with FeBABE on strand 2 (after nt 13,15,17,19,21)) DNA 1: TAGCAATGTAATCGTCTATGACGTT DNA 2: AACGTCATAGACGATTACATTGC		binds
